Measurements from US20240417475A1 (AFFIMED, published 2024).

Assays:
[1] = biological target: T1, human FOLR1 endogenously expressed on tumor cell lines (human, UniProt P15328 25-234); assay: flow cytometry on HCC-827 cells, 37 C, one-site fit of MFI, mean
T1 construct: whole, on cells; also called FOLR1-positive tumor cell lines; FOLR1+ target cells
Procedure: (§1) Cells were collected and centrifuged at 400×g, 5 min, 4° C. Cell pellets were resuspended in FACS buffer (PBS (Invitrogen, cat.: 392-0434) containing 2% h.i. FCS (Invitrogen, cat.: 10500-064), and 0.1% sodium azide (Sigma, cat.: S8032)) at 1-5×10⁶ cells/mL. 100 μL/well of the cell suspension were transferred into U-shaped, 96-well micro plates (0.1-0.5×10⁶ cells per well), cells were pelleted at 400×g, 5 min, 4° C., and resuspended in 100 μL/well of serial dilutions of the indicated antibodies in FACS buffer. After 40-50 min incubation at 37° C., cells were washed 3-times with ice-cold FACS buffer. […] After the final incubation step, cells were washed 2-times with ice-cold FACS buffer, and the cell pellet was resuspended in 100 μL FACS buffer. Fluorescence intensities of >1×10⁴ viable cells were analyzed by flow cytometry and the median fluorescence intensity (MFI) was determined for each sample.
(§2) Equilibrium dissociation constants (KD) of antibody binding, mean and standard deviation (SD) were calculated by plotting MFI values and fitting a non-linear regression model for one-site binding to hyperbolic dose-response curves using GraphPad Prism for Windows (v9; GraphPad Software; La Jolla California USA).
(§3) Specific antibody binding capacity (SABC) as a marker for FOLR1 expression level on cells was determined on all tumor cell lines using QIFIKIT.

[2] = biological target: T1, human FOLR1 endogenously expressed on …; assay: flow cytometry on OVCAR-3 cells (FOLR1 medium) at 37 °C, FITC anti-human IgG detection
Procedure: as §1

[3] = biological target: T2, human CD16A-mFc (158V) (sAg_149) (human, UniProt P08637 17-208); assay: ELISA, plate coated with human CD16A-mFc (158V) (sAg_149), one-site fit, mean of 3
T2 construct: also called CD16A 158V (sAg_149); recombinant human CD16A 158V
T2 sequence (P08637 17-208 F176V limits assumed): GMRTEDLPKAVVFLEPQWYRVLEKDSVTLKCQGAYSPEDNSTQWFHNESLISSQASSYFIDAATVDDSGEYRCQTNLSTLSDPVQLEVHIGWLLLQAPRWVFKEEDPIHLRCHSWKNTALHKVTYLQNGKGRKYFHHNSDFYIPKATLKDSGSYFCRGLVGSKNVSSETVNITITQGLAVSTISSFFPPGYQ
Procedure: (§4) After incubation with the secondary antibodies, the plate was washed five times with PBST and one time with PBS. Chromogenic substrate (1:1 mixture of TMB:TMBB, SeraCare cat: 5120-0048 and 5120-0037) was added and the reaction was stopped by addition of an equal volume of 0.5 M H₂SO₄ after sufficient color development. Absorbance at 450 nm was measured in an ELISA plate reader (Sunrise Absorbance Reader 901000833, Schoeller Instruments). The absorbance values were corrected by subtracting the background of the respective secondary antibody and fitted with a one site binding function (hyperbola) using GraphPad Prism (version 9.3.1. GraphPad Software, La Jolla California USA). KD is the concentration of ligand required to reach half-maximal binding.

[4] = biological target: T1, human FOLR1 endogenously expressed on …; assay: flow cytometry on OVCAR-3 cells, 37 C, one-site fit of MFI, mean
Procedure: as §1, §2, §3

[5] = biological target: T3, human FOLR1-mFc_Avi-tag (sAg_303) (human, UniProt P15328 25-234, limits assumed); assay: ELISA, plate coated with human FOLR1-mFc_Avi-tag (sAg_303), one-site fit, mean of 3
T3 construct: also called human FOLR1 (sAg_303); recombinant human FOLR1
T3 sequence (P15328 25-234 limits assumed): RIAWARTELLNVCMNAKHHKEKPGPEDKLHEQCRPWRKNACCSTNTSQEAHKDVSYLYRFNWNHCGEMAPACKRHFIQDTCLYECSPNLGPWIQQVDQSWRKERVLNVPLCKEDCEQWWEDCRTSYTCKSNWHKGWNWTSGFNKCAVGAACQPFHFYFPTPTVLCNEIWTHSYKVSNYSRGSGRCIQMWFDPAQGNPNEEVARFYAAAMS
Procedure: as §4, with “96 well ELISA plates (F96 Maxisorp Immuno Plate, Nunc, cat: 442404) were coated overnight at 4° C. with 50 μL/well of 10 μg/mL human FOLR1-mFc_Avi-tag in DPBS. After overnight incubation plates were washed three times with PBST and blocked with Candor Blocking solution for 2 h at RT under mild agitation. […] After” for “After”

[6] = biological target: T1, human FOLR1 endogenously expressed on …; assay: flow cytometry on NCI-H2110 cells, 37 C, one-site fit of MFI, mean
Procedure: as §1, §2, §3

[7] = biological target: T1, human FOLR1 endogenously expressed on …; assay: flow cytometry on IGROV-1 cells (FOLR1 high) at 37 °C, FITC anti-human IgG detection
Procedure: as §1

[8] = biological target: T3, human FOLR1-mFc_Avi-tag (sAg_303); assay: ELISA, plate coated with human FOLR1-mFc_Avi-tag, anti-human Fab-HRP detection, A450
Procedure: as §4, with “96 well ELISA plates (F96 Maxisorp Immuno Plate, Nunc, cat: 442404) were coated overnight at 4° C. with 50 μL/well of 10 μg/mL human FOLR1-mFc_Avi-tag in DPBS. After overnight incubation plates were washed three times with PBST and blocked with Candor Blocking solution for 2 h at RT under mild agitation. […] After” for “After”

[9] = biological target: T1, human FOLR1 endogenously expressed on …; assay: cell-based or functional assay
[10] = biological target: T1, human FOLR1 endogenously expressed on …; assay: flow cytometry on IGROV-1 cells, 37 C, one-site fit of MFI, mean
Procedure: as §1, §2, §3

[11] = biological target: T4, human CD16A (158F) expressed on CHO cells (cAg_34) (human, UniProt P08637 17-254); assay: flow cytometry on huCD16A-transfected CHO cells (cAg_34), one-site fit of MFI, experiment 1
T4 construct: also called huCD16A-transfected CHO cells
T4 sequence (P08637 17-254 limits assumed): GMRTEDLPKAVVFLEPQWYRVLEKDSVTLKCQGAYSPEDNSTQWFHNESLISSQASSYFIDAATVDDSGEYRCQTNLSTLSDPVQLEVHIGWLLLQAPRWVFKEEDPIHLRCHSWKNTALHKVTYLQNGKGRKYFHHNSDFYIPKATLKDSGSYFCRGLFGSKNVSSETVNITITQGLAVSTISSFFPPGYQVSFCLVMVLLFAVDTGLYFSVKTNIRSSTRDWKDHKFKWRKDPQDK
Procedure: (§5) To analyze binding of different antibody constructs to CHO cells transfected with human CD16A (cAg_34), relative to CD16 expression by flow cytometry, 1-2×10⁵ were resuspended in 100 μL FACS buffer (PBS (Invitrogen, cat.: 14190-169) containing 2% heat-inactivated FCS (Invitrogen, cat.: 10270-106), and 0.1% sodium azide (Roth, Karlsruhe, Germany, cat.: A1430.0100)) in round-bottom 96-well microtiter plates. After washing in FACS buffer, cells were incubated in 50 μL FACS buffer without antibodies or with titrated antibodies starting at a concentration of 100 μg/mL followed by ten 5-fold serial dilutions for 30 min on ice in the dark. […] After washing, binding was measured by flow cytometry and mean fluorescence intensities (MFI) of cell samples were calculated and corrected for background staining using control cells stained with secondary antibodies only.
(§6) Equilibrium dissociation constants (KD) of antibody binding were calculated by plotting MFI values and fitting a non-linear regression model for one-site binding to hyperbolic dose-response curves using GraphPad Prism.

[12] = biological target: T4, human CD16A (158F) expressed on CHO …; assay: flow cytometry on huCD16A-transfected CHO cells (cAg_34), one-site fit of MFI, experiment 2
Procedure: as §5, §6

[13] = biological target: T4, human CD16A (158F) expressed on CHO …; assay: flow cytometry on huCD16A-transfected CHO cells, on ice, APC goat anti-human IgG detection
Procedure: as §5

[14] = biological target: T4, human CD16A (158F) expressed on CHO …; assay: flow cytometry on huCD16A-transfected CHO cells (cAg_34), one-site fit of MFI, experiment 3
Procedure: as §5, §6

[15] = biological target: T4, human CD16A (158F) expressed on CHO …; assay: flow cytometry on huCD16A-transfected CHO cells (cAg_34), one-site fit of MFI, mean of 3
Procedure: as §5, §6

T1 sequence (P15328 25-234): as the sequence (P15328 25-234 limits assumed) above

Kd [1] [nM]	EC50 (read off the curve) [2] [nM]	Kd [3] [nM]	Kd [4] [nM]	Kd [5] [nM]	Kd [6] [nM]	EC50 (read off the curve) [7] [nM]	EC50 (read off the curve) [8] [nM]	EC50 [nM] of ADCP, HCC-78 cells [9] [nM]	EC50 [nM] of ADCP, HeLa cells [9] [nM]	Phagocytosis [%], 4 h ADCP, DK-MG cells [9] [%]	Phagocytosis [%], 4 h ADCP, HCC-78 cells [9] [%]	Phagocytosis [%], 4 h ADCP, HeLa cells [9] [%]	Kd [10] [nM]	Kd [11] [nM]	Kd [12] [nM]	EC50 (read off the curve) [13] [nM]	Kd [14] [nM]	Kd [15] [nM]	Binder
3.2	~2	3.53	1.8	0.05	2.3	~4	~0.05	0.81	0.78	0	10.7	16.4	4.4	–	–	–	–	–	anti-FOLR1 IgG1 IgAb_335 (antibody, IgG1 with farletuzumab-derived Fv domains and wild-type Fc; also called IgAb_355; anti-FOLR1 IgG1 antibody comprising wild-type Fc) chain 1: not shown chain 2: DIQLTQSPSSLSASVGDRVTITCSVSSSISSNNLHWYQQKPGKAPKPWIYGTSNLASGVPSRFSGSGSGTDYTFTISSLQPEDIATYYCQQWSSYPYMYTFGQGTKVEIKRTVAAPSVFIFPPSDEQLKSGTASVVCLLNNFYPREAKVQWKVDNALQSGNSQESVTEQDSKDSTYSLSSTLTLSKADYEKHKVYACEVTHQGLSSPVTKSFNRGEC
–	–	–	–	–	–	–	–	–	–	–	–	–	–	56.2	18.7	~20	37.9	37.6	scFv-IgAb_148 (CD123-1×CD16a2) (bispecific antibody, also called CD123×CD16A scFv-IgAb_148; CD123/CD16A scFv-IgAb_148) chain 1: QVQLQQSGAEVKKPGASVKVSCKASGYTFTDYYMKWVKQSHGKSLEWMGDIIPSNGATFYNQKFKGKATLTVDRSTSTAYMELSSLRSEDTAVYYCARSHLLRASWFAYWGQGTLVTVSSASTKGPSVFPLAPSSKSTSGGTAALGCLVKDYFPEPVTVSWNSGALTSGVHTFPAVLQSSGLYSLSSVVTVPSSSLGTQTYICNVNHKPSNTKVDKKVEPKSCDKTHTCPPCPAPEFEGGPSVFLFPPKPKDTLMISRTPEVTCVVVAVSHEDPEVKFNWYVDGVEVHNAKTKPREEQYNSTYRVVSVLTVLHQDWLNGKEYKCKVSNKALPAPIEKTISKAKGQPREPQVYTLPPSREEMTKNQVSLTCLVKGFYPSDIAVEWESNGQPENNYKTTPPVLDSDGSFFLYSKLTVDKSRWQQGNVFSCSVMHEALHNHYTQKSLSLSPGGGGGSGGGGSGGGGSGGGGSGGGGSGGGGSSYVLTQPSSVSVAPGQTATISCGGHNIGSKNVHWYQQRPGQSPVLVIYQDNKRPSGIPERFSGSNSGNTATLTISGTQAMDEADYYCQVWDNYSVLFGGGTKLTVLGGSGGSGGSGGSGGSGGSGGSQVQLVQSGAEVKKPGESLKVSCKASGYTFTSYYMHWVRQAPGQGLEWMGAIEPMYGSTSYAQKFQGRVTMTRDTSTSTVYMELSSLRSEDTAVYYCARGSAYYYDFADYWGQGTLVTVSS chain 2: not shown
